B1: Alanine--tRNA ligase, cytoplasmic (Mus musculus), Q8BGQ7 (parent)
chain: MDATLTAREIRERFINFFRRNEHTYVHSSATIPLDDPTLLFANAGMNQFKPIFLNTIDPSHPMAKLSRAANTQKCIRAGGKHNDLDDVGKDVYHHTFFEMLGSWSFGDYFKELACKMALELLTQEFGIPVERLYVTYFGGDEAAGLEPDLECRQIWQNLGLDEARILPGNMKDNFWEMGDTGPCGPCSEIHYDRIGGRDAAHLVNQDDPNVLEIWNLVFIQYNRESDGVLKPLPKKSIDTGMGLERLVSVLQNKMSNYDTDLFMPYFEAIQKGTGARPYTGKVGAEDADGIDMAYRVLADHARTITVALADGGRPDNTGRGYVLRRILRRAVRYSHEKLNASRGFFATLVDVVVQSLGDAFPELKKDPEMVKDIINEEEVQFLKTLSRGRRILDRKIQSLGDCKTIPGDTAWLLYDTYGFPVDLTGLIAEEKGLVVDMNGFEEERRLAQLKSQGKGAGDEDLIMLDIYAIEELRAKGLEATDDSPKYNYQSDSSGSYVFECTVATVLALRREKMFVDEVVTGQECGVVLDKTCFYAEQGGQIYDEGYLVKVDDSSEDKTEFTVKNAQVRGGYVLHIGTIYGNLKVGDQVRLFIDEPRRRPVMSNHTATHILNFALRSVLGEADQKGSLVAPDRLRFDFTAKGAMSTQQIKKAEEIVNGMIEAAKPVYTQDCPLAAAKAIQGLRAVFDETYPDPVRVVSIGVPVSELLDDPCGPAGSLTSVEFCGGTHLRNSSHAGAFVIVTEEAIAKGIRRIVAVTGAEAQKALRKSETLKKSLSAMEAKVKAQTAPNKDVQREIADLGEALATAVIPQWQKDEQRETLKSLKKVMDDLDRASKADVQKRVLEKTKQLIDSNPNQPLVILEMESGASAKALNEALKLFKTHSPQTSAMLFTVDNEAGKITCLCQVPQNAANRGLKASEWVQQVSGLMDGKGGGKDMSAQATGKNVGCLQEALQLATSFAQLRLGDVKN
B2: Ankyrin repeat domain-containing protein 16 (Mus musculus), A2AS55-1 (parent)
chain: MALPGDPRRLCRLVQEGRLRDLQEELAVARGCRGPAGDTLLHCAARHGRQDILAYLVEAWSMDIEATNRDYKRPLHEAASMGHRDCVRYLLGRGAVVDSLKKADWTPLMMACTRKNLDVIQDLVEHGANPLLKNKDGWNSFHIASREGHPVILRYLLTVCPDAWKTESNIRRTPLHTAAMHGCLEAVQVLLERCHYEPDCRDNCGVTPFMDAIQCGHVSIAKLLLEQHKACSSAADSMGAQALHRAAVTGQDEAIRFLVCGLGIDVDVRAKSSQLTALHYAAKEGQTNTVQTLLSLGADINSTDERNRSVLHLACAGQHVACTRLLLQSGLKDSEDLTGTLAQQLTRSVDILQDFDHDVKS

Variants of: B1
Settings: with Ankrd16, A2AS55-1

Row | effect of a mutation on the interaction | Variant
1 | with no effect | A734E

Variants of: B2
Settings: with syac_mouse Aars1, Q8BGQ7

Row | effect of a mutation on the interaction | Variant
2 | disrupting interaction strength | K102R;K135R;K165R

— IntAct's records for PubMed 29769718
